Reference: article PMC9482650, “Quantitative fragmentomics allow affinity mapping of interactomes” (Nature Communications, 2022)

What was measured:
Assay in all cases: holdup assay
Design in all cases: key: below the threshold = too weak to quantify, mostly under pKd 3.1 to 4
[1] = molecular target: T1, APBA1_1, Q02410
T1 sequence (Q02410 651-752, limits assumed, looked up): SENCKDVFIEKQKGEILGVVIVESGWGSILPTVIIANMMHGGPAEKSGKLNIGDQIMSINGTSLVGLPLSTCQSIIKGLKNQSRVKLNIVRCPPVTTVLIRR

[2] = molecular target: ARHGEF12, Q9NZN5-2
Chain of ARHGEF12, Q9NZN5-2 (Q9NZN5 other isoform, or with tags, fused parts or gaps): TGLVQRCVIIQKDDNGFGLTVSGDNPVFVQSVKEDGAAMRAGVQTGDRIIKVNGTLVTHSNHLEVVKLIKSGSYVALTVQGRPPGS

[3] = molecular target: DLG1_2, Q12959
Chain of DLG1_2, Q12959 (Q12959 314-412): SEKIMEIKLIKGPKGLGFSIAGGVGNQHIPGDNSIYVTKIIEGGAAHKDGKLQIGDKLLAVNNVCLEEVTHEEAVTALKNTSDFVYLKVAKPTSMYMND

[4] = molecular target: DLG2_3, Q15700
[5] = molecular target: DLG5_1, Q8TDM6
Chain of DLG5_1, Q8TDM6 (Q8TDM6 617-713): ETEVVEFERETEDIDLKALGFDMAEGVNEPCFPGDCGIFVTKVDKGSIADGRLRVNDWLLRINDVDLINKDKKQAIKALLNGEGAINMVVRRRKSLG

[6] = molecular target: T2, DVL3, Q92997
T2 sequence (Q92997 244-331, limits assumed, looked up): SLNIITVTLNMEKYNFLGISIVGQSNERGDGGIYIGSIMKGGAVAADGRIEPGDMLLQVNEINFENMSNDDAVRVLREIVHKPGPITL

[7] = molecular target: T3, GRIP1_2, Q9Y3R0
T3 sequence (Q9Y3R0 145-248, limits assumed, looked up): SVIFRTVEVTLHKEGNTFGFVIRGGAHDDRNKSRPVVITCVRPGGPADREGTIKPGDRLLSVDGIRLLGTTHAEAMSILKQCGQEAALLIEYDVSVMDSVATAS

[8] = molecular target: GRIP2_3, Q9C0E4
Chain of GRIP2_3, Q9C0E4 (Q9C0E4 238-339): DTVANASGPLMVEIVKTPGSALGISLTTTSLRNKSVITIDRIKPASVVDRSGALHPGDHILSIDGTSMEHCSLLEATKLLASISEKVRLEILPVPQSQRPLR

[9] = molecular target: T4, HTRA4, P83105
T4 sequence (P83105 378-476, limits assumed, looked up): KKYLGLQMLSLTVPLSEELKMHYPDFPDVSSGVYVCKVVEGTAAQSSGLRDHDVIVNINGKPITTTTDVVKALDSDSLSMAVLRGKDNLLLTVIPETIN

[10] = molecular target: IL16_1, Q14005
Chain of IL16_1, Q14005 (Q14005 210-306): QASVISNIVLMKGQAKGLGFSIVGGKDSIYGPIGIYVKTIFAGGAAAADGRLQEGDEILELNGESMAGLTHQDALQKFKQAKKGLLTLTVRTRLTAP

[11] = molecular target: Inadl_10, Q8NI35
Chain of Inadl_10, Q8NI35 (Q8NI35 1673-1763): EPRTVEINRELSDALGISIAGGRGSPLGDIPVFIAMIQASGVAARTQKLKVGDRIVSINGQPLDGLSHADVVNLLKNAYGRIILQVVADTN

[12] = molecular target: Inadl_8, Q8NI35
Chain of Inadl_8, Q8NI35 (Q8NI35 1425-1530): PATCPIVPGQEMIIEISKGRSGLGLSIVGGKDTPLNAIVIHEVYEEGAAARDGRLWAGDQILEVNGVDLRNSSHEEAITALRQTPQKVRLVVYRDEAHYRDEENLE

[13] = molecular target: LIMK2, P53671
Chain of LIMK2, P53671 (P53671 143-248): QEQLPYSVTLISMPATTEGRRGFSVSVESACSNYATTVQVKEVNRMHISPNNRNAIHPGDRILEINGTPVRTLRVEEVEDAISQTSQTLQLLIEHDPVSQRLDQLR

[14] = molecular target: T5, LIN7C, Q9NUP9
T5 sequence (Q9NUP9 88-185, limits assumed, looked up): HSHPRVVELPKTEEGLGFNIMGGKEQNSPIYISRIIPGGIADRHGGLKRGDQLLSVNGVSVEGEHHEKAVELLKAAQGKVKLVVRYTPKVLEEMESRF

[15] = molecular target: MAGI2_2, Q86UL8
Chain of MAGI2_2, Q86UL8 (Q86UL8 410-522): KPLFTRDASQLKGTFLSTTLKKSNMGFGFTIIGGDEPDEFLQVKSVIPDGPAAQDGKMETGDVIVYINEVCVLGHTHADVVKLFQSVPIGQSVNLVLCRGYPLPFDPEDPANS

[16] = molecular target: MAGI2_5, Q86UL8
Chain of MAGI2_5, Q86UL8 (Q86UL8 915-1017): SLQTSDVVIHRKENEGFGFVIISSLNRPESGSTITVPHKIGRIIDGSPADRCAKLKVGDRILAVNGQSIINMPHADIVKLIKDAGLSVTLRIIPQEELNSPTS

[17] = molecular target: MAST2, Q6P0Q8
Chain of MAST2, Q6P0Q8 (Q6P0Q8 1099-1202): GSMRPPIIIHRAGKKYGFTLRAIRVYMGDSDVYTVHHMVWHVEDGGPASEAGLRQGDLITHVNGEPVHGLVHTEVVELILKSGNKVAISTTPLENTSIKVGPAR

[18] = molecular target: NHERF4_1, Q86UT5-2
Chain of NHERF4_1, Q86UT5-2 (Q86UT5 other isoform, or with tags, fused parts or gaps): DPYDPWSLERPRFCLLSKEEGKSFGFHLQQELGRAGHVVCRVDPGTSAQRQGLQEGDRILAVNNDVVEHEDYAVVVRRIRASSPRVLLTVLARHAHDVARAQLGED

[19] = molecular target: NHERF4_4, Q86UT5
Chain of NHERF4_4, Q86UT5 (Q86UT5 464-550): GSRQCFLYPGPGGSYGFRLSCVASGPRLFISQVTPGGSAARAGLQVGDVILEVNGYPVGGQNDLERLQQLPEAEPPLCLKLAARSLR

[20] = molecular target: T6, RAPGEF6, Q8TEU7
T6 sequence (Q8TEU7 525-625, limits assumed, looked up): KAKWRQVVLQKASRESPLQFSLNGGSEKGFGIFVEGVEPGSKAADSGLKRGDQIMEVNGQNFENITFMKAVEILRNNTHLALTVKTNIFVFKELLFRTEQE

[21] = molecular target: T7, RHPN1, Q8TCX5
T7 sequence (Q8TCX5 508-602, limits assumed, looked up): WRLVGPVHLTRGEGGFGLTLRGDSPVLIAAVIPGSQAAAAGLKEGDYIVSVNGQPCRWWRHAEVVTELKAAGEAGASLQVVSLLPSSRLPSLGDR

[22] = molecular target: T8, SNTA1, Q13424
T8 sequence (Q13424 82-180, limits assumed, looked up): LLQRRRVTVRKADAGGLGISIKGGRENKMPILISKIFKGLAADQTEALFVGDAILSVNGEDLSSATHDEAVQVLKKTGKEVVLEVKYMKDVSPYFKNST

[23] = molecular target: T9, SNTB1, Q13884
T9 sequence (Q13884 107-205, limits assumed, looked up): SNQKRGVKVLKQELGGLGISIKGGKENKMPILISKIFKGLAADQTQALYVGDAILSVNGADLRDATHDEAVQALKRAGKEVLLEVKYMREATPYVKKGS

[24] = molecular target: T10, SNTG1, Q9NSN8
T10 sequence (Q9NSN8 52-150, limits assumed, looked up): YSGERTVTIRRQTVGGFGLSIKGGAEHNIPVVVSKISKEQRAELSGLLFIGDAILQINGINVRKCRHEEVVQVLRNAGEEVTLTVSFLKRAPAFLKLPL

[25] = molecular target: TJP2_1, Q9UDY2
Chain of TJP2_1, Q9UDY2 (Q9UDY2 24-128): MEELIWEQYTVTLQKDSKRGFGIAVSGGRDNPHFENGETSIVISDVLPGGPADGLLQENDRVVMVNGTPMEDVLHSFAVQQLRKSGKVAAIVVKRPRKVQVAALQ

[26] = molecular target: T11, TX1BP3, O14907
T11 sequence (O14907 10-122, limits assumed, looked up): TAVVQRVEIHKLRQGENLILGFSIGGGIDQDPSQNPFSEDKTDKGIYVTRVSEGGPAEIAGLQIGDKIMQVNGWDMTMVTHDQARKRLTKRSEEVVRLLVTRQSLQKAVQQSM

[27] = plain residues with an end cap or a label only (N-terminal biotin on a linker: ahx)
[28] = plain residues with an end cap or a label only (N-terminal biotin on a linker: ttds)

SDSSGQEYSL [KCTD3, Q9Y597]
pKd [1, 27]: below the threshold | pKd [2, 27]: below the threshold | pKd [3, 27]: below the threshold | pKd [4, 27]: below the threshold | pKd [5, 27]: below the threshold | pKd [6, 27]: below the threshold | pKd [7, 27]: below the threshold | pKd [8, 27]: below the threshold | pKd [9, 27]: below the threshold | pKd [10, 27]: below the threshold | pKd [11, 27]: below the threshold | pKd [12, 27]: below the threshold | pKd [13, 27]: below the threshold | pKd [14, 27]: below the threshold | pKd [15, 27]: below the threshold | pKd [16, 27]: below the threshold | pKd [17, 27]: 4.53 | pKd [18, 27]: below the threshold | pKd [19, 27]: below the threshold | pKd [20, 27]: below the threshold | pKd [21, 27]: below the threshold | pKd [22, 27]: below the threshold | pKd [23, 27]: below the threshold | pKd [24, 27]: below the threshold | pKd [25, 27]: below the threshold | pKd [26, 27]: below the threshold

ESLLLGPSNF [SHROOM4, Q9ULL8]
pKd [1, 27]: below the threshold | pKd [2, 27]: below the threshold | pKd [3, 27]: below the threshold | pKd [4, 27]: below the threshold | pKd [5, 27]: below the threshold | pKd [6, 27]: below the threshold | pKd [7, 27]: below the threshold | pKd [8, 27]: below the threshold | pKd [9, 27]: below the threshold | pKd [10, 27]: below the threshold | pKd [11, 27]: below the threshold | pKd [12, 27]: 3.57 | pKd [13, 27]: below the threshold | pKd [14, 27]: below the threshold | pKd [15, 27]: below the threshold | pKd [16, 27]: below the threshold | pKd [17, 27]: below the threshold | pKd [18, 27]: below the threshold | pKd [19, 27]: below the threshold | pKd [20, 27]: below the threshold | pKd [21, 27]: below the threshold | pKd [22, 27]: below the threshold | pKd [23, 27]: below the threshold | pKd [24, 27]: below the threshold | pKd [25, 27]: below the threshold | pKd [26, 27]: below the threshold

DKDPHSETAL [TMIGD1, Q6UXZ0]
pKd [1, 28]: below the threshold | pKd [2, 28]: 4.17 | pKd [3, 28]: below the threshold | pKd [4, 28]: below the threshold | pKd [5, 28]: below the threshold | pKd [6, 28]: below the threshold | pKd [7, 28]: below the threshold | pKd [8, 28]: below the threshold | pKd [9, 28]: below the threshold | pKd [10, 28]: below the threshold | pKd [11, 28]: below the threshold | pKd [12, 28]: below the threshold | pKd [13, 28]: below the threshold | pKd [14, 28]: below the threshold | pKd [15, 28]: 3.63 | pKd [16, 28]: 3.67 | pKd [17, 28]: 5.64 | pKd [18, 28]: 3.88 | pKd [19, 28]: below the threshold | pKd [20, 28]: below the threshold | pKd [21, 28]: 3.85 | pKd [22, 28]: 4.07 | pKd [23, 28]: 4.53 | pKd [24, 28]: 4.1 | pKd [25, 28]: below the threshold | pKd [26, 28]: 4.03

KKYVDAETSL [SLC4A7, Q9Y6M7]
pKd [1, 28]: below the threshold | pKd [2, 28]: 4.29 | pKd [3, 28]: 3.56 | pKd [4, 28]: below the threshold | pKd [5, 28]: below the threshold | pKd [6, 28]: below the threshold | pKd [7, 28]: below the threshold | pKd [8, 28]: below the threshold | pKd [9, 28]: below the threshold | pKd [10, 28]: below the threshold | pKd [11, 28]: below the threshold | pKd [12, 28]: below the threshold | pKd [13, 28]: below the threshold | pKd [14, 28]: 3.81 | pKd [15, 28]: 3.77 | pKd [16, 28]: 3.52 | pKd [17, 28]: 6.38 | pKd [18, 28]: 3.49 | pKd [19, 28]: below the threshold | pKd [20, 28]: below the threshold | pKd [21, 28]: 4.28 | pKd [22, 28]: 4.14 | pKd [23, 28]: 4.46 | pKd [24, 28]: 3.82 | pKd [25, 28]: below the threshold | pKd [26, 28]: 3.82

RHTTSTETAV [HPV30-E6, P36809]
pKd [1, 28]: below the threshold | pKd [2, 28]: 4.2 | pKd [3, 28]: 5.63 | pKd [4, 28]: 4.79 | pKd [5, 28]: below the threshold | pKd [6, 28]: below the threshold | pKd [7, 28]: 3.78 | pKd [8, 28]: 3.61 | pKd [9, 28]: below the threshold | pKd [10, 28]: 4.08 | pKd [11, 28]: below the threshold | pKd [12, 28]: 3.94 | pKd [13, 28]: 3.85 | pKd [14, 28]: 4.19 | pKd [15, 28]: 5.04 | pKd [16, 28]: 4.31 | pKd [17, 28]: 5.52 | pKd [18, 28]: below the threshold | pKd [19, 28]: below the threshold | pKd [20, 28]: below the threshold | pKd [21, 28]: 4.08 | pKd [22, 28]: 4.72 | pKd [23, 28]: 5.1 | pKd [24, 28]: 4.94 | pKd [25, 28]: below the threshold | pKd [26, 28]: 4.65

SSLQSLETSV [ATP2B4, P23634]
pKd [1, 28]: below the threshold | pKd [2, 28]: 4.4 | pKd [3, 28]: 5.43 | pKd [4, 28]: 4.88 | pKd [5, 28]: below the threshold | pKd [6, 28]: 3.6 | pKd [7, 28]: 3.58 | pKd [8, 28]: below the threshold | pKd [9, 28]: 3.6 | pKd [10, 28]: 4.7 | pKd [11, 28]: below the threshold | pKd [12, 28]: 3.54 | pKd [13, 28]: below the threshold | pKd [14, 28]: 4.8 | pKd [15, 28]: 4.49 | pKd [16, 28]: 4.6 | pKd [17, 28]: 5.53 | pKd [18, 28]: below the threshold | pKd [19, 28]: below the threshold | pKd [20, 28]: 3.72 | pKd [21, 28]: 4.58 | pKd [22, 28]: 4.91 | pKd [23, 28]: 5.59 | pKd [24, 28]: 5.08 | pKd [25, 28]: 3.62 | pKd [26, 28]: 4.62
